The nature of the data set: protein stability index of a GFP-peptide fusion (GPS, HEK-293T) (PSI 1-6); higher = more stable.
Setting [1] is: treatment: DMSO, c terminus: a fixed tail appended.
Setting [2] is: treatment: MLN4924 1 uM, 8 h, c terminus: a fixed tail appended.
The mark [3] stands for this setting: treatment: DMSO, c terminus: native.
[4] abbreviates: treatment: MLN4924 1 uM, 8 h, c terminus: native.

± gives the standard deviation.
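Further: 24-mer peptide tiles fused after GFP, lentivirally expressed, FACS-sorted into six equal bins by GFP/DsRed ratio, decoded by Illumina sequencing, PSI is the read-weighted mean bin number.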

QALKRKKRFEKQLTQIDGTLSTIE [CHMP4C] registered a protein stability index under setting [1] of 4.05 ± 0.18 and a protein stability index under setting [2] of 3.96 ± 0.23.

In the case of QAQPGEATSGPPGIQPGQEPPVTM [PALM], the protein stability index by setting is: under setting [1], 5.6 ± 0.19; under setting [2], 5.33 ± 0.24.

In the case of QARLRDVSRREGALGWAPAAPPPL [ZBED3], the protein stability index by setting is: under setting [1], 3.44 ± 0.41; under setting [2], 3.6 ± 0.35.

Regarding QCDHCERCFYTRKDVRRHLVVHTG [PLAGL1], the protein stability index is, setting by setting: under setting [1], 2.91 ± 0.074; under setting [2], 3.19 ± 0.27.

On to QDELRNRSVKVICLGSLASKLSRK [FAN1], for which the protein stability index is 2.96 ± 0.32 under setting [1] and 3.17 ± 0.36 under setting [2].

As to QDEVPDEVENQFILRLPLEHACTV [TAF7L], the protein stability index amounted to 4.395 ± 0.043 under setting [1] and 4.47 ± 0.13 under setting [2].

Turning to QDLVELYLTNCEKLSAKSLQTLRS [ZER1], the protein stability index is 2.1 ± 0.2 under setting [1] and 2.54 ± 0.21 under setting [2].

QDQGYKTLRLRENCVLSSSPNPFP [ZNF8] yielded a protein stability index under setting [1] of 3.25 ± 0.11 and a protein stability index under setting [2] of 3.43 ± 0.22.

QDSTRTVGERLQDTHSWKSELQRE [TEKT4]: the protein stability index by setting is: under setting [1], 4.88 ± 0.36; under setting [2], 4.96 ± 0.27.

As to QEFSDVERAIETLIKNFHQYSVEG [S100A14], the protein stability index stood at 2.33 ± 0.33 under setting [1] and 2.59 ± 0.43 under setting [2].

Take QEKARQLLGRLKPSHTSRTLILS [MYBL2]: the protein stability index was found to be 2.12 ± 0.29 under setting [3] and 2.32 ± 0.042 under setting [4].

QEQLLECNKLCGRGQSRQLSPET [SLC2A12]: the protein stability index is, setting by setting: under setting [3], 4.21 ± 0.43; under setting [4], 4.61 ± 0.46.

Turning to QFHCHKAVLASCSQYFRSLFSSHP [KLHL14], the protein stability index is, setting by setting: under setting [1], 2.95 ± 0.43; under setting [2], 2.81 ± 0.4.

Consider QFLDIGPDVTRVGLLQYGSTVKNE [MATN2], for which the protein stability index is, setting by setting: under setting [1], 3.55 ± 0.14; under setting [2], 3.65 ± 0.45.

QFSRGDFVVEYHGDLIEITDAKKR [KMT5A]: the protein stability index is 4.13 ± 0.93 under setting [1] and 4.15 ± 0.059 under setting [2].

Turning to QGQYETIERLRSLSPKIMQEAFLV [TBC1D10A], the protein stability index runs as follows: under setting [1], 2.32 ± 0.21; under setting [2], 2.22 ± 0.27.

For QGSAVTLKTSKMALSPSATAKRIN [CDC14A], the protein stability index came to 4.22 ± 0.25 under setting [1] and 4.44 ± 0.18 under setting [2].

With QGYTINVPWNQVGMRDADYIAAFL [HDAC6], the protein stability index is 2.25 ± 0.22 under setting [1] and 2.46 ± 0.37 under setting [2].

On to QHGFFRRTADEATNTGPAGSSAST [DYRK1B], for which the protein stability index reads like this: under setting [1], 5.02 ± 0.19; under setting [2], 4.93 ± 0.16.

As for QHGLVLRDLKLCRFVFADRERKKL [TRIB3], the protein stability index under setting [1] is 2.38 ± 0.12 and the protein stability index under setting [2] was determined as 2.55 ± 0.18.

Consider QHIDNITQIEDATEKLKANAESSK [TRIM14], for which the protein stability index under setting [1] worked out at 5.46 ± 0.065 and the protein stability index under setting [2] was 5.33 ± 0.39.

In the case of QIMQGLEHPFLVNLWYSFQDEEDM [STK32A], the protein stability index is, setting by setting: under setting [1], 2.19 ± 0.37; under setting [2], 2.37 ± 0.36.

QKTSGQHMIQGAGSLEKALPIIQS [DLC1]: the protein stability index by setting is: under setting [1], 3.86 ± 0.26; under setting [2], 4.18 ± 0.097.

Regarding QKYKLFQQQQLTFTAALEHCRENA [SPACA9], the protein stability index is 2.86 ± 0.24 under setting [1] and 3.12 ± 0.29 under setting [2].

As to QLDMFYRNWALKESFIKAIGVGLG [AASDHPPT], the protein stability index runs as follows: under setting [1], 2.78 ± 0.1; under setting [2], 2.92 ± 0.58.

Turning to QLKRQKRDYIHSLKLLNVLEEYIT [FAM9B], the protein stability index runs as follows: under setting [1], 2.28 ± 0.55; under setting [2], 2.56 ± 0.42.

Consider QLQKILSIPQSSLEPLKAIIQYRL [ACSBG2], for which the protein stability index came out at 2.78 ± 0.86 under setting [1] and 2.36 ± 0.25 under setting [2].

As to QLQRSWVKMDQKSKHLKEMYQELM [TRIM43], the protein stability index reads like this: under setting [1], 2.36 ± 0.4; under setting [2], 2.55 ± 0.75.

As to QLSSFGSVDWLSQSSCSGPTHTPR [VENTX], the protein stability index reads like this: under setting [1], 3.48 ± 0.3; under setting [2], 3.69 ± 0.29.

Take QMPQGNPLLLSHTLQELLARDTVQ [SNX8]: the protein stability index under setting [1] stood at 3.23 ± 0.086 and the protein stability index under setting [2] came out at 3.15 ± 0.27.

QMQEDNSSFSLLLDLLSELYQKQP [INTS3] returned a protein stability index under setting [1] of 2.38 ± 0.16 and a protein stability index under setting [2] of 2.37 ± 0.31.

On to QNQNITLDCEGTTNKMKSPETKQR [KMT2E], for which the protein stability index runs as follows: under setting [1], 5.37 ± 0.12; under setting [2], 5.3 ± 0.12.

On to QPWHAVMDIESLSVFTEPNRHFYR [FBXO33], for which the protein stability index stood at 2.26 ± 0.18 under setting [1] and 2.11 ± 0.13 under setting [2].

On to QQAVEQIAKAEETHSSLSQELQAR [CCDC89], for which the protein stability index was 5.2 ± 0.25 under setting [1] and 5.23 ± 0.28 under setting [2].

On to QQHAEGSPEPGTPAAPTPESFTVH [DNAAF3], for which the protein stability index came to 5.17 ± 0.24 under setting [1] and 5.27 ± 0.43 under setting [2].

As to QQSPAAVSMETYHVTLTLPPTQLE [C2CD2L], the protein stability index turned out to be 3.37 ± 0.35 under setting [1] and 3.48 ± 0.35 under setting [2].

Turning to QRLEEETRKREDAEHNLVLFRKDV [PRPH], the protein stability index turned out to be 5.12 ± 0.18 under setting [1] and 5.13 ± 0.17 under setting [2].

Consider QRLKAVIVIQTYYRQWHAKIFVEN [IQUB], for which the protein stability index turned out to be 2.83 ± 0.5 under setting [1] and 2.79 ± 0.79 under setting [2].

Sequence QRRASTVSSVTQVEVDENAYRCGS [NET1] yielded a protein stability index under setting [1] of 5.01 ± 0.45 and a protein stability index under setting [2] of 5.02 ± 0.2.

As to QRVEQLTRDLAGLRQFFKQLPSPP [CEBPD], the protein stability index reads like this: under setting [1], 2.71 ± 0.34; under setting [2], 2.82 ± 0.29.

Regarding QSETQGLEGAQAPLAVEEDASSST [MAGEA10], the protein stability index runs as follows: under setting [1], 5.64 ± 0.26; under setting [2], 5.52 ± 0.33.

Consider QSNVLCSIFGICMVFSGLCPLLLG [PTGFR], for which the protein stability index was found to be 2.75 ± 0.23 under setting [1] and 2.63 ± 0.34 under setting [2].

Consider QSPDEKPLVALDTDSDDDFDMSRY [FAM219A], for which the protein stability index runs as follows: under setting [1], 5.44 ± 0.26; under setting [2], 5.46 ± 0.23.

For QVDGGANFSVDRWERKEGGGGISC [CPOX], the protein stability index worked out at 4.4 ± 0.12 under setting [1] and 4.48 ± 0.21 under setting [2].

As to QVLLKGMTSISLPSVMDPGAFETV [ZBTB22], the protein stability index amounted to 2.61 ± 0.36 under setting [1] and 2.84 ± 0.37 under setting [2].

Consider QVLNAIEAYTEHRPEITSRAINLL [ZER1], for which the protein stability index by setting is: under setting [1], 2.56 ± 0.27; under setting [2], 2.66 ± 0.32.

Turning to QVLSAKERHLVEIKQKLGMNLMNE [TPD52L1], the protein stability index turned out to be 3.04 ± 0.12 under setting [1] and 3.04 ± 0.13 under setting [2].

Sequence QVVGQVNVEMDATPGIDLTRVLAE [KRT13] had a protein stability index under setting [1] of 4.07 ± 0.32 and a protein stability index under setting [2] of 4.15 ± 0.2.

QWWNAVFIMLLIGIVLPVFYLVYF [LYSMD4] had a protein stability index under setting [1] of 2.2 ± 0.16 and a protein stability index under setting [2] of 2.14 ± 0.17.

For the sequence QYEEIALKSKAEAEALYQTKFQEL [KRT71], the protein stability index by setting is: under setting [1], 4.08 ± 0.35; under setting [2], 4.18 ± 0.15.

The sequence QYNRPISDFLTLHSIIISLVEAGA [FEM1B] showed a protein stability index under setting [1] of 2.34 ± 0.53 and a protein stability index under setting [2] of 2.36 ± 0.34.

As to RAFNTDHQTQLLYQASAMMVESRY [RAD51], the protein stability index reads like this: under setting [1], 2.42 ± 0.35; under setting [2], 2.68 ± 0.22.

The sequence RAGHHPNQYATCRLCGRQVSRGPG [ZBED2] yielded a protein stability index under setting [1] of 2.35 ± 0.38 and a protein stability index under setting [2] of 2.67 ± 0.59.

As for RAISTSVCVRAHESVVKSEDFSLP [COX4I1], the protein stability index is, setting by setting: under setting [1], 3.9 ± 0.17; under setting [2], 3.79 ± 0.34.

In the case of RDGALLGCSLTADGLPLHFFIQTV [MYORG], the protein stability index reads like this: under setting [1], 2.35 ± 0.31; under setting [2], 2.36 ± 0.52.

For RDGGLCVNDLAVGLRRLGLHRTEG [SLC25A25], the protein stability index under setting [1] is 3.12 ± 0.16 and the protein stability index under setting [2] came to 2.99 ± 0.14.

For RDGYGMTPLLAASVTGHTNIVEYL [FEM1A], the protein stability index turned out to be 2.92 ± 0.22 under setting [1] and 2.93 ± 0.24 under setting [2].

As for RDIQDENQLLVADVKRLGKQNARF [STX11], the protein stability index is, setting by setting: under setting [1], 4.21 ± 0.32; under setting [2], 4.44 ± 0.18.

Consider RDVAAEAVARSPKRPAWGSRRFEA [POMT2], for which the protein stability index runs as follows: under setting [1], 3.73 ± 0.23; under setting [2], 3.94 ± 0.085.

As to REAMLEMLLQHQICKEVQAEQEPT [SPAG8], the protein stability index amounted to 4.1 ± 0.25 under setting [1] and 4.15 ± 0.39 under setting [2].

Regarding RESWDSAKKLPPVQESQSERLQAA [ELOA2], the protein stability index by setting is: under setting [1], 5.12 ± 0.17; under setting [2], 5.02 ± 0.086.

In the case of RFPLMTPQELINYVQTVDFMRTDN [KLHL13], the protein stability index is 2.71 ± 0.26 under setting [1] and 2.83 ± 0.34 under setting [2].

As for RFYYSEDDHGDECSYTDLLPQDEG [KCNA4], the protein stability index by setting is: under setting [1], 5.07 ± 0.19; under setting [2], 4.88 ± 0.27.

On to RGFFFSHVGWLLVRKHPAVKEKGS [SCD], for which the protein stability index runs as follows: under setting [1], 2.31 ± 0.6; under setting [2], 2.5 ± 0.17.

In the case of RGPPHGWPKLCPCLRSGIGSSQAL [MYCL], the protein stability index is 2.21 ± 0.65 under setting [1] and 2.26 ± 0.5 under setting [2].

Consider RGQVGLVPKNYVVVLSDGPALHPA [NCK2], for which the protein stability index is, setting by setting: under setting [1], 2.56 ± 0.29; under setting [2], 2.43 ± 0.23.

For the sequence RGRFGELLLLLPTLQSITWQMIEQ [HNF4A], the protein stability index under setting [1] stood at 2.94 ± 0.28 and the protein stability index under setting [2] is 3.33 ± 0.3.

On to RGSETTYESSADIAGDEGTQIPAD [TAF7L], for which the protein stability index turned out to be 5.58 ± 0.12 under setting [1] and 5.62 ± 0.12 under setting [2].

On to RHLRSAHRRELESSGAGSSPPAAP [ZBED3], for which the protein stability index came out at 5.09 ± 0.36 under setting [1] and 5.1 ± 0.28 under setting [2].

In the case of RHLTSRHQEAEMAQNAVRLHYGLP [CTNNB1], the protein stability index was determined as 3.71 ± 0.14 under setting [1] and 3.73 ± 0.25 under setting [2].

Regarding RIHSGEKPYGCVECGKAFSRSSIL [ZNF24], the protein stability index is, setting by setting: under setting [1], 2.24 ± 0.31; under setting [2], 2.83 ± 0.23.

On to RIHSGKKPYACDECAKAFSRSAIL [ZNF396], for which the protein stability index runs as follows: under setting [1], 2.31 ± 0.4; under setting [2], 2.38 ± 0.33.

For the origin of these results see the supplement of paper PMC10567573.
